# Test results from PMC10786891, “Massively parallel profiling of RNA-targeting CRISPR-Cas13d”.
# Substitutions are numbered along the chain they refer to. Names may count otherwise.
# T1: EsCas13d, nuclease-dead (Eubacterium siraeum, UniProt B0MS50, R295A;H300A;R849A;H854A)
# T1 sequence: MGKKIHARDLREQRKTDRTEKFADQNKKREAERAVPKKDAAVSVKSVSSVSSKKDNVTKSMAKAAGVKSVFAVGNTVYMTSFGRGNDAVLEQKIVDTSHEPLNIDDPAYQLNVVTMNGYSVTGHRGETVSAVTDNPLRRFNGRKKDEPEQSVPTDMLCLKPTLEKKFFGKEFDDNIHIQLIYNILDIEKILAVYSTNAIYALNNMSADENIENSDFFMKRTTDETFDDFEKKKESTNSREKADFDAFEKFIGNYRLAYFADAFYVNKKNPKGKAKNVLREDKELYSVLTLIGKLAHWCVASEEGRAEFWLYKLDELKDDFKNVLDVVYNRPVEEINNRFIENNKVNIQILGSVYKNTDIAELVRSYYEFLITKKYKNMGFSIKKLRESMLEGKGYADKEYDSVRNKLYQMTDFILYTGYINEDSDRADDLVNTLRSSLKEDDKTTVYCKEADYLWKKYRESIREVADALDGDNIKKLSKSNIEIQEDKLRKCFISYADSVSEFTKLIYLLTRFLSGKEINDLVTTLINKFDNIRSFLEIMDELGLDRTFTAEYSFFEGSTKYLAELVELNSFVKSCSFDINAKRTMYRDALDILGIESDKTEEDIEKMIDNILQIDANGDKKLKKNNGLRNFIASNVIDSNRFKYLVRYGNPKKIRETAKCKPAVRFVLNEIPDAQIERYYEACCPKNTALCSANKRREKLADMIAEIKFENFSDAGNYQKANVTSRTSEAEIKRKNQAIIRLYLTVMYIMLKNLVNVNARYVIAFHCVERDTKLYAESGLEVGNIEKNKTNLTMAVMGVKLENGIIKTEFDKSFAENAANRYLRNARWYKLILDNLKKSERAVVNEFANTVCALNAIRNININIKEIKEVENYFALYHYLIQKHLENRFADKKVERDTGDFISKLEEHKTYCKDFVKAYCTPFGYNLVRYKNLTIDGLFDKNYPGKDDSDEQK
# B1: target 1 insG 3' of 9,insA 3' of 5 (mixed)
# RNA 1: CACCCGUGCAAAAAUGCAGGGGUCUAAAACUGAGCGGAUAACCUCUCUAUGG
# RNA 2: GGGAAUGGAUCCACAUCUACGAAUUCGUACCAUAGAGAGGUUAGUCCGACUCACCGAGAUCGGAAGAGCACACGU
# B2: target 1 insU 3' of 17,insA 3' of 13 (mixed)
# RNA 1: B1 RNA 1
# RNA 2: GGGAAUGGAUCCACAUCUACGAAUUCGUACCAUAGUAGAGAGUUAUCCGCUCACCGAGAUCGGAAGAGCACACGU
# B3: target 1 insG 3' of 22,insA 3' of 8 (mixed)
# RNA 1: B1 RNA 1
# RNA 2: GGGAAUGGAUCCACAUCUACGAAUUCGUACGCAUAGAGAGGUUAUACCGCUCACCGAGAUCGGAAGAGCACACGU
# B4: target 1 insA 3' of 19,insC 3' of 3 (mixed)
# RNA 1: B1 RNA 1
# RNA 2: B3 RNA 2 with G31C, C32A, A33U, U34A, A46C, C48G, G49C, C50U, U51C
# B5: target 1 C4A,G15U (mixed)
# RNA 1: B1 RNA 1
# RNA 2: GGGAAUGGAUCCACAUCUACGAAUUCGUACCAUAGAUAGGUUAUCCGAUCACCGAGAUCGGAAGAGCACACGU
# B6: target 1 C6G,U11C (mixed)
# RNA 1: B1 RNA 1
# RNA 2: B5 RNA 2 with U37G, U41C, C46G, A48C
# B7: target 1 C4U,U8C (mixed)
# RNA 1: B1 RNA 1
# RNA 2: B5 RNA 2 with U37G, U44C, A48U
# B8: target 1 G15C,C22A (mixed)
# RNA 1: B1 RNA 1
# RNA 2: B5 RNA 2 with C30A, U37C, A48C
# B9: target 1 U11A (mixed)
# RNA 1: B1 RNA 1
# RNA 2: B5 RNA 2 with U37G, U41A, A48C
# B10: target 1 A18G (mixed)
# RNA 1: B1 RNA 1
# RNA 2: B5 RNA 2 with A34G, U37G, A48C
# B11: target 1 U10G,C22A (mixed)
# RNA 1: B1 RNA 1
# RNA 2: B5 RNA 2 with C30A, U37G, U42G, A48C
# B12: target 1 insC 3' of 12,insA 3' of 11 (mixed)
# RNA 1: B1 RNA 1
# RNA 2: B1 RNA 2 with U41C, G44U, U45A, C46U, G48C, A49G
# B13: target 1 insU 3' of 12,insA 3' of 6 (mixed)
# RNA 1: B1 RNA 1
# RNA 2: B1 RNA 2 with A43U, G44A, G48A, A49G
# B14: target 1 insU 3' of 6,insG 3' of 3 (mixed)
# RNA 1: B1 RNA 1
# RNA 2: B1 RNA 2 with G44U, U45C, C47U, A49C, C50U, U51G
# B15: target 1 A9U,G12A (mixed)
# RNA 1: B1 RNA 1
# RNA 2: B5 RNA 2 with U37G, G40A, A43U, A48C
# B16: target 1 insA 3' of 15,insC 3' of 8 (mixed)
# RNA 1: B1 RNA 1
# RNA 2: B1 RNA 2 with G39A, U41G, A43U, G44A, G48C, A49G
# B17: target 1 G5U,G12C (mixed)
# RNA 1: B1 RNA 1
# RNA 2: B5 RNA 2 with U37G, G40C, G47U, A48C
# B18: target 1 U8G,U19A (mixed)
# RNA 1: B1 RNA 1
# RNA 2: B5 RNA 2 with U33A, U37G, U44G, A48C
# B19: target 1 insC 3' of 22,insC 3' of 10 (mixed)
# RNA 1: B1 RNA 1
# RNA 2: B3 RNA 2 with G31C, A44C, U45A, A46U
# B20: target 1 A9U (mixed)
# RNA 1: B1 RNA 1
# RNA 2: B5 RNA 2 with U37G, A43U, A48C
# B21: target 1 U8A,C22U (mixed)
# RNA 1: B1 RNA 1
# RNA 2: B5 RNA 2 with C30U, U37G, U44A, A48C
# B22: target 1 insG 3' of 16,insA 3' of 10 (mixed)
# RNA 1: B1 RNA 1
# RNA 2: B2 RNA 2 with U36A, A37G, A41G, G42U, U44A
# B23: target 1 A1U,A9U (mixed)
# RNA 1: B1 RNA 1
# RNA 2: B5 RNA 2 with U37G, A43U, A48C, A51U
# B24: target 1 A1G,A9U (mixed)
# RNA 1: B1 RNA 1
# RNA 2: B5 RNA 2 with U37G, A43U, A48C, A51G
# B25: target 1 U3A,G17A (mixed)
# RNA 1: B1 RNA 1
# RNA 2: B5 RNA 2 with G35A, U37G, A48C, U49A
# B26: target 1 C2U,C4A (mixed)
# RNA 1: B1 RNA 1
# RNA 2: B5 RNA 2 with U37G, C50U
# B27: target 1 insC 3' of 17,insU 3' of 17 (mixed)
# RNA 1: B1 RNA 1
# RNA 2: B2 RNA 2 with U36C, A37U, G38A, A39G, G40A, A41G
# B28: target 1 insG 3' of 11,insG 3' of 7 (mixed)
# RNA 1: B1 RNA 1
# RNA 2: B1 RNA 2 with U42G, A43U, G44A, C47G, G48C, A49G
# B29: target 1 insA 3' of 21,insA 3' of 8 (mixed)
# RNA 1: B1 RNA 1
# RNA 2: B3 RNA 2 with G31C, C32A
# B30: target 1 insC 3' of 12,insG 3' of 2 (mixed)
# RNA 1: B1 RNA 1
# RNA 2: B1 RNA 2 with U41C, A43U, G44A, A49C, C50U, U51C, C52G
# Target: T1, EsCas13d, nuclease-dead
# Experiment: crRNA (strand 1, pre-loaded); Mg2+; 40 mM Tris-HCl pH 7.5, 150 mM NaCl, 6 mM MgCl2, 1 mM DTT, 0.1% Tween-20, 0.2 mg/ml BSA; 25 C; 10 min per concentration, then washed
# Conditions: tags: His6-TwinStrep-SUMO cleaved; N-terminal SNAP kept (SNAP-Surface 488); label: 3' end held by stalled T7 RNA polymerase
row,Binder,Kd [nM]
1,B1,10.3 ± 1
2,B2,13.1 ± 1.3
3,B3,35.9 ± 2.6
4,B4,17.4 ± 1.9
5,B5,51 ± 19
6,B6,9.8 ± 0.8
7,B7,30 ± 4
8,B8,63 ± 12
9,B9,30.7 ± 1.9
10,B10,94 ± 28
11,B11,60 ± 14
12,B12,15 ± 1.2
13,B13,8.6 ± 0.9
14,B14,7.9 ± 0.4
15,B15,7.7 ± 0.4
16,B16,15.2 ± 1.8
17,B17,41 ± 4
18,B18,61 ± 13
19,B19,41 ± 10
20,B20,8.9 ± 0.7
21,B21,35 ± 5
22,B22,19.9 ± 1.5
23,B23,7.8 ± 0.5
24,B24,8.1 ± 0.6
25,B25,46 ± 5
26,B26,6.7 ± 0.4
27,B27,95 ± 14
28,B28,17.2 ± 0.8
29,B29,38.9 ± 1.8
30,B30,9.8 ± 1.2
